From patent publication US20230272069A1 (INSTITUTE OF HEMATOLOGY AND BLOOD DISEASES HOSPITAL CHINESE …, published 2023)

T1: CD19 antigen molecule (human, UniProt P15391 20-556)
T1 sequence (looked up): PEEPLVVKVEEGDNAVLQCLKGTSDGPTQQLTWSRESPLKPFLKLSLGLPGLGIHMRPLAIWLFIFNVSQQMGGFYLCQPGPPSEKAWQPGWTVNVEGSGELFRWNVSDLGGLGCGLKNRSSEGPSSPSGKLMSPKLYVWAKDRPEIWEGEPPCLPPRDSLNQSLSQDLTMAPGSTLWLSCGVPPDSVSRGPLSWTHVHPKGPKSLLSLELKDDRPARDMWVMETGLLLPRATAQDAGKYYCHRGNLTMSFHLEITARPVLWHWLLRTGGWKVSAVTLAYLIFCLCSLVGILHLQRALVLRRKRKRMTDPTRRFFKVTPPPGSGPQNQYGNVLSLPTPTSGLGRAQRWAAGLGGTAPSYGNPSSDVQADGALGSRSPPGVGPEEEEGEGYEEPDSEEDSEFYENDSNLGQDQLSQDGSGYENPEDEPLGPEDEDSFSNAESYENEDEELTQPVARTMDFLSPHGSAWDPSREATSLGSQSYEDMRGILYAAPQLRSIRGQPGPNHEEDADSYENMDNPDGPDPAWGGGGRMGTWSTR

T2: CD22 antigen molecule (human, UniProt P20273 20-847)
T2 sequence (looked up): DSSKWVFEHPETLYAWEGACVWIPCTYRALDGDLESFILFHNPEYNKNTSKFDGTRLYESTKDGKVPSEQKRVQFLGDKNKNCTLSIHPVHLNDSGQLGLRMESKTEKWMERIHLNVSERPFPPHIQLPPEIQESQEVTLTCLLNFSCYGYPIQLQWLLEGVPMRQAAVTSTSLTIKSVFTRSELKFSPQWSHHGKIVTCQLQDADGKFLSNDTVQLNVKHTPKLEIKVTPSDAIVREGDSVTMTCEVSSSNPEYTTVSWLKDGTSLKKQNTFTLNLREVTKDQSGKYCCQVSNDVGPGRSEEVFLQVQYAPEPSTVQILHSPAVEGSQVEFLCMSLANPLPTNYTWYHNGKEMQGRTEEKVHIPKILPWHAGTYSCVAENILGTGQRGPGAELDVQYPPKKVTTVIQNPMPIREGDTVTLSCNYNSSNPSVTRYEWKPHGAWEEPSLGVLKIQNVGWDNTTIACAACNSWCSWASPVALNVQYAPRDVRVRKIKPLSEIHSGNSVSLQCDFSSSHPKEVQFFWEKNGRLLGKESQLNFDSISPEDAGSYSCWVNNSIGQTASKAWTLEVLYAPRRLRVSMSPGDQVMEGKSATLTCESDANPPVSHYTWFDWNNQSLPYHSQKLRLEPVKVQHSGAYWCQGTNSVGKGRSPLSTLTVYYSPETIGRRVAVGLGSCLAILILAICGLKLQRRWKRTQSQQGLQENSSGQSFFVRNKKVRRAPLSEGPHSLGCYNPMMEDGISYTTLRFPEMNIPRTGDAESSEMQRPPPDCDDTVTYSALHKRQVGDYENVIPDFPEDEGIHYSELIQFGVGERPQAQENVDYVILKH

B1: CD19 VL-CD22 VL-CD22 VH-CD19 VH-CD8α-4-1BB-CD3ζ CAR (other)
chain: DIVLTQSPKFMSTSVGDRVSVTCKASQNVGTNVAWYQQKPGQSPKPLIYSATYRNSGVPDRFTGSGSGTDFTLTITNVQSKDLADYFCQQYNRYPYTSGGGTKLEIKRGGGGSDIELTQSPSSLAVSVGEKVTMSCKSSQSLLYSSNQKNYLAWYQQKPGQSPKLLIYWASTRESGVPDRFTGSGSGTDFTLTVSSVKAEDLAVYYCQQSYSYPFTFGSGTKLEIKRGSTSGSGKPGSGEGSTKGQVKLQQSGPELVKPGASVKISCKASGYDFSISWMNWVRQRPGQGLEWIGRIYPGDGDSNYNGKFEGKATLTADKSSSTAYMQLSGLTSVDSAVYFCARTTTMIALYAMDYWGQGTTVTVSSGGGGSQVQLQQSGAELVRPGSSVKISCKASGYAFSSYWMNWVKQRPGQGLEWIGQIYPGDGDTNYNGKFKGQATLTADKSSSTAYMQLSGLTSEDSAVYFCARKTISSVVDFYFDYWGQGTTLTVSSEFTTTPAPRPPTPAPTIASQPLSLRPEACRPAAGGAVHTRGLDFACDIYIWAPLAGTCGVLLLSLVITLYKRGRKKLLYIFKQPFMRPVQTTQEEDGCSCRFPEEEEGGCELRVKFSRSADAPAYQQGQNQLYNELNLGRREEYDVLDKRRGRDPEMGGKPRRKNPQEGLYNELQKDKMAEAYSEIGMKGERRRGKGHDGLYQGLSTATKDTYDALHMQALPPR
B2: CD22 scFv-CD19 scFv-CD8α-4-1BB-CD3ζ CAR (other)
chain: DIELTQSPSSLAVSVGEKVTMSCKSSQSLLYSSNQKNYLAWYQQKPGQSPKLLIYWASTRESGVPDRFTGSGSGTDFTLTVSSVKAEDLAVYYCQQSYSYPFTFGSGTKLEIKRGGGGSGGGGSGGGGSQVKLQQSGPELVKPGASVKISCKASGYDFSISWMNWVRQRPGQGLEWIGRIYPGDGDSNYNGKFEGKATLTADKSSSTAYMQLSGLTSVDSAVYFCARTTTMIALYAMDYWGQGTTVTVSSEAAAKEAAAKEAAAKEAAAKEAAAKDIVLTQSPKFMSTSVGDRVSVTCKASQNVGTNVAWYQQKPGQSPKPLIYSATYRNSGVPDRFTGSGSGTDFTLTITNVQSKDLADYFCQQYNRYPYTSGGGTKLEIKRGGGGSGGGGSGGGGSQVQLQQSGAELVRPGSSVKISCKASGYAFSSYWMNWVKQRPGQGLEWIGQIYPGDGDTNYNGKFKGQATLTADKSSSTAYMQLSGLTSEDSAVYFCARKTISSVVDFYFDYWGQGTTLTVSSEFTTTPAPRPPTPAPTIASQPLSLRPEACRPAAGGAVHTRGLDFACDIYIWAPLAGTCGVLLLSLVITLYKRGRKKLLYIFKQPFMRPVQTTQEEDGCSCRFPEEEEGGCELRVKFSRSADAPAYQQGQNQLYNELNLGRREEYDVLDKRRGRDPEMGGKPRRKNPQEGLYNELQKDKMAEAYSEIGMKGERRRGKGHDGLYQGLSTATKDTYDALHMQALPPR

Key:
[1] = biological target: T1, CD19 antigen molecule; test: cell-based or functional assay
[2] = biological target: T2, CD22 antigen molecule; test: cell-based or functional assay

Binder | degranulation level (CD107a on GFP+ cells) after co-culture with MV4-11-CD19 cells, E:T 1:1, 4 h [1] [%] | degranulation level (CD107a on GFP+ cells) after co-culture with MV4-11-CD22 cells, E:T 1:1, 4 h [2] [%]
B1 | ≥ 25 | ≥ 15
B2 | ≥ 25 | ≥ 15
